Laboratory results as given in PMC6614797.

Experiments:
[1] = target: NusA-AR2^D443C labeled with fluorescein-5-maleimide (E. coli) (UniProt P0AFF6); assay: fluorescence polarisation
[2] = target: RNA polymerase (E. coli) (UniProt P0A7Z4); assay: SEC

inositol monophosphatase SuhB (from UniProt P0ADG4 1-267) (natural protein)
Kd [1]: 83 µM | percent of SuhB coeluted with the rrnG-TAC [2]: 20%

ribosomal protein S4 (from UniProt P0A7V8 1-206) (natural protein)
percent of S4 coeluted with the rrnG-TAC [2]: 25%
